Assay results reported in patent US9725713.

Columns and labels:
[1] = tested on: MDA-MB-231 cell surface (target molecule unidentified, whole cells) (Homo sapiens?); test: flow
[2] = tested on: MDA-MB-231 cell surface (target molecule unidentified, whole cells); test: flow; details: apparent Kd on whole cells

For “TCCCGAGTGACGCAGCCCCCGGNGGGATTAATCGGTGGACACGGTGGCTGAC [Z23-A30]”, the Kd ([1]; n at 23 is Z, reduced binding at 250 nM, almost no binding in titration) was > 1 µM.

For “TCCCGAGTGACGCAGCCCCCGGCGGGATTNATCGGTGGACACGGTGGCTGAC [C23-P30]”, the Kd ([2]; n at 30 is P) was 0.16 µM.

In the case of “TCCCGAGTGACGCAGCCCCCGGTGGGATTNATCGGTGGACACGGTGGCTGAC [T23-P30]”, the Kd ([1]; n at 30 is P, no binding at 250 nM) is reported as > 1 µM.

Work on “TCCCGAGTGACGCAGCCCCCGGZGGGATTPATCGGTGGACACGGTGGCTGAC [ZAP-2012 (Z23-P30)]” yielded a Kd ([2]; AEGIS DNA, Z at 23 (6-amino-5-nitro-3-(2'-deoxyribosyl)-2(1H)-pyridone), P at 30 (2-amino-8-(2'-deoxyribosyl)-imidazo[1,2-a]-1,3,5-triazin-4(8H)one), SEQ 7/16, DPBS, 5 mM MgCl2, glucose, tRNA, BSA, 10% FBS, library background subtracted) of 0.03 µM.

“TCCCGAGTGACGCAGCCCCCGGNGGGATTGATCGGTGGACACGGTGGCTGAC [Z23-G30]” gave a Kd ([2]; n at 23 is Z) of 0.442 µM.

With “TCCCGAGTGACGCAGCCCCCGGTGGGATTAATCGGTGGACACGGTGGCTGAC [T23-A30]” the Kd ([1]; no binding at 250 nM) was > 1 µM.

For “TCCCGAGTGACGCAGCCCCCGGCGGGATTAATCGGTGGACACGGTGGCTGAC [C23-A30]”, the Kd ([1]; no binding at 250 nM) was > 1 µM.

With “TCCCGAGTGACGCAGCCCCCGGTGGGATTGATCGGTGGACACGGTGGCTGAC [T23-G30]” the Kd ([1]; no binding at 250 nM) was > 1 µM.

For “TCCCGAGTGACGCAGCCCCCGGCGGGATTGATCGGTGGACACGGTGGCTGAC [C23-G30]”, the Kd ([1]; no binding at 250 nM) was > 1 µM.
